{
  "source": "paper PMC7283272",
  "about": "“Identifying the role of PrimPol in TDF-induced toxicity and implications of its loss of function mutation in an HIV+ patient”",
  "binders": {"B1": {"name": "D20A/D45 primer/template (dsDNA)", "DNA 1": "GCCTCGCAGCCGTCCAACCA", "DNA 2": "GGACGGCATTGGATCGAGGTTGAGTTGGTTGGACGGCTGCGAGGC"}},
  "molecular_target": "T1, PrimPol WT (UniProt Q96LW4 1-560)",
  "T1 sequence": "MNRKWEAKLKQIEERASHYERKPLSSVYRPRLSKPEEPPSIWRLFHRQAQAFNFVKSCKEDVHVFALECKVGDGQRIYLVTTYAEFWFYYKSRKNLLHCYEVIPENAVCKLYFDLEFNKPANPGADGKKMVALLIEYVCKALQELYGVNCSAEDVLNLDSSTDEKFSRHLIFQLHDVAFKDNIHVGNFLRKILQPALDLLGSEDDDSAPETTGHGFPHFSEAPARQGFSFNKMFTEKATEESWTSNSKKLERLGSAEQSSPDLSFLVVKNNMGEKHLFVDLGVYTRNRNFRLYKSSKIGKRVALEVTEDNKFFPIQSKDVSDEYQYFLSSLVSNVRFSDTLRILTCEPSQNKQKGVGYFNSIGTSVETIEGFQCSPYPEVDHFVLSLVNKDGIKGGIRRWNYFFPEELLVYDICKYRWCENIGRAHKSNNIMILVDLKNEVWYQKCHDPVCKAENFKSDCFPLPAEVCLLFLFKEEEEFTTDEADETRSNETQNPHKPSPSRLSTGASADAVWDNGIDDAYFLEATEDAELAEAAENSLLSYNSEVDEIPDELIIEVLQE",
  "experiment": "thermal shift (DSF, stabilization by DNA); 10 uM Mn2+; EMSA: Mn2+ present, buffer not given in the material. DSF: 5 uM protein, 5 uM dsDNA, 50 mM Tris pH 7.5, 300 mM NaCl, 0.5 uM TCEP, 5% glycerol, 10 uM MgCl2 or MnCl2, 4-95 C ramp",
  "settings": "protein: recombinant; tags: N-terminal His-TEV (tag cleaved); 20 bp, template 5' overhang 25 nt",
  "data": [
    {"binder": "B1", "values": [
      {"measurement": "binding result", "result": "binds"}
    ]}
  ]
}
